# In patent publication US20240025971A1 (ATRECA, published 2024):
# Residue numbers refer to the chain shown, from its start.
# B1: AB-009083 (antibody, V domains shown)
# VH: EVHLLESGGGLVQPGGSLTLTCAASGFSFGNYVMGWVRQAPGKGLEWVSSIFGSGANPHYGGSVKGRFTISRDNSQNTLFLQMDSLTAEDTAVYYCARDGGTMVGGIITGGFNYFDSWGQGTLVTVSS
# VL: EIVLTQSPASLSLSPGGWATLSCRASRSIGNSLAWYQQRPGQAPRLLIYDASNRATGIPARFSGSGSGTDFTLTISSLEPEDFAIYYCQQRNSWPPLYTFGQGTKLEIK
# notes: human IgG1
# B2: AB-009106 (antibody, V domains shown)
# VH: QVQLAQSGAEVKRPGASVKVSCKASGFDLTTYGVGWVRQAPGQGLEWMGWISGSSGDTHYAQQFQDRVTMTTDTPTSTAYMELRSLRSDDTAVYYCVRENIAHYGSRTFLVRYYRGMDVWGQGTTVTVAS
# VL: QSALTQPASVSGSPGQSITITCTGSSSDIGGFDFVSWYQQYPGKAPKLVISEVTNRPSGVSIRFSGSKSGNTASLTISGLQAEDEADYYCSSYASSYPTTNTRVFGTGTKVTVL
# notes: human IgG1
# B3: AB-009226 (antibody, V domains shown)
# VH: not shown
# VL: QSALTQPASVSGSPGQSITISCTGTSSDVGGYNYVSWYQQHPGKAPKLMIYEVSNRPSGVSNRFSGSKSGNTASLTISGLQAEDEADYYCSSYTSSSTLYVFGTGTKVTVL
# notes: human IgG1
# B4: AB-009110 (antibody, V domains shown)
# VH: QVQLVQSGAEVKEPGASVKVSCNASGYIFTSYGISWVRQAPGQGLEWVGWISGNNGNTNYAQKFQGRVTLTTDTSTSTAYLELRSLTSADTGVYFCARARLPSAYWGPGTLLTVSS
# VL: EILLTQSPATLSVSPGERGSLSCRASQSVGTNLAWYQQKPGQAPRLLIYGASARATGIPARFSGSGSGTEFTLTISSLQSEDFGVYYCQQYNDWPPWTFGQGTKVEIK
# notes: human IgG1
# B5: AB-009251 (antibody, V domains shown)
# V domain 1: QVQLVQSGAEVKKPGASVKVSCKTSGYTFTTFYIHWVRQVPGQGLEWMGIINPDGGSTNYAQEFQARVTMTTDTSTSTAYMELSSLRFEDTAVFYCATSLGAPPGLSPRTGPQRRGPPGFDFWGQGTLITVSA
# V domain 2: QSVLTQPPSVSGAPGQRVTISCTGSSSNIGAGYDVHWYQQLPGTAPKLLIFDNNNRPSGVPYRFSGSRSGTSASLAITGLQPEDEADYYCQSYDSSLSGRVFGGGTRVTVL
# notes: human IgG1
# B6: AB-009665 (antibody, V domains shown)
# VH: QVQLVQSGAEVKKPGASVKVSCKVSGYTLIELSMHWVRQAPGKGLEWMGGFDPEDGETIYAQKFQGRVTMTEDTSTDTAYMELSSLRSEDTAVYYCAAARVFGVATWFDPWGQGTLVTVSS
# VL: QSVLTQPPSVSAAPGQKVTISCSGSSSNIGNNYVSWYQQLPGTAPKLLIYDNNKRPSGIPDRFSGSKSGTSATLGITGLQTGDEADYYCGTWDSSLSAGVFGGGTKLTVL
# notes: human IgG1
# B7: AB-009080 (antibody, V domains shown)
# VH: QVQLQQWGAGLLKPSETLSLTCAVYGGSFSGYYWSWIRQPPGKGLEWIGEINHSGSTNYNPSLKSRVTISVDTSKNQFSLKLSSVTAADTAVYYCARGLPVTTFYYYYYGMDVWGQGTTVTVSS
# VL: not shown
# notes: human IgG1
# B8: AB-010020 (antibody, V domains shown)
# VH: QMQLVQSGPEVKKPGTSVKVSCKASGFTFTSSAVQWVRQARGQRLEWIGWIVVGSGNTNYAQKFQERVTITRDMSTSTAYMELSSLRSEDTAVYYCAAPACSSTSCYDGFDIWGQGTMVTVSS
# VL: not shown
# notes: human IgG1
# B9: AB-010021 (antibody, V domains shown)
# VH: B8 VH with P99V, A100Y, S103G, T104G, Y107L, G109A
# VL: not shown
# notes: human IgG1; also called AB-0010021
# B10: AB-009237 (antibody, V domains shown)
# VH: QVQLLQSGAEVKKPGASVSVSCKASGFTFTSYYFHWVRQAPGQGLEWMGIVSPAGGSTNYAQKFQGRVTMTRDTSTSTVHMELRNVRYDDTAVFYCARSVYCSSPSCPHGMDVWGPGTMVTVSS
# VL: DIQVTQSPSTLSASVGDRVTITCRASQSILTYLAWYQQKPGKAPNLLIYKASNLQSGVPSRFSGSGSGTEFTLTISSLQPDDFATYHCQQYKSYPFSFGQGTKLAIK
# notes: human IgG1
# B11: AB-009231 (antibody, V domains shown)
# VH: EVQLVESGGGLVQPGGSLRLSCAASGFTFSSYWMSWVRQAPGKGLEWVANIKQDGSEKYYVDSVKGRFTISRDNAKNSLYLQMNSLRAEDTAVYYCARVSMRFLEWSFYYYYYMDVWGKGTTVTVSS
# VL: SSELTQDPAVSVALGQTVRITCQGDSLRSYYASWYQQKPGQAPVLVIYGKNNRPSGIPDRFSGSSSGNTASLTITGAQAEDEADYYCNSRDSSGNHLGVVFGGGTKLTVL
# notes: human IgG1
# B12: AB-009221 (antibody, V domains shown)
# VH: EVQLVESGGGLVQPGGSLRLSCAASGFTVSSNYMSWVRQAPGKGLEWVSVIYSGGSTYYADSVKGRFTISRHNSKNTLYLQMNSLRAEDTAVYYCARDRNAFDIWGQGTMVIVSS
# VL: DIQMTQSPSSLSASVGDRVSITCQASQDISNDLNWYQQKPGKAPKLLVYDASKLETGVPPRFSGSGSGTDFTFTISSLQPEDIATYYCQQYDNLPLYSFGQGTKLEIK
# notes: human IgG1
# B13: AB-009174 (antibody, V domains shown)
# VH: QVQLQQWGAGLLKPSETLSLTCAVYGESFSGYYWNWIRQPPGKGLEWIGEIDQSGSTNYNPSLKSRVTISVDTSKNQFSLKLTSVTAADTAVYYCARVSGRMQLWLRAGYMDVWDKGTTVTVSS
# VL: QSALTQPASVSGSPGQSITISCTGTSSDVGRYNYVSWYQQHPGKAPKLMIYEVSNRPSGVSNRFSGSKSGNTASLTISGLQAEDEADYYCSSYTTSSTRVFGGGTKLTVL
# notes: human IgG1
# B14: AB-009202 (antibody, V domains shown)
# VH: QVQLVESGGGVVQPGRSLRLSCAASGFTFSSYGMHWVRQAPGKGLEWVAVIWYDGSNKYYADSVKGRFTISRDNSKNTLYLQMNSLRAEDTAVYYCARDGGPEYYFDYWGQGTLVTVSS
# VL: SYELTQPPSVSVSPGQTARITCSGDALPKQYAYWYQQKPGQAPVLVIYKDSERPSGIPERFSGSSSGTTVTLTISGVQAEDEADYYCQSADSSGTYNVVFGGGTKLTVL
# notes: human IgG1
# B15: AB-009239 (antibody, V domains shown)
# VH: QVHLEESGGGVVQPGRSLRLSCAASGFTFSGYAMHWVRQAPGKGLAWVAVISYDGTNKYYTDSVKGRFSISRDNSNNTLYLQMNSLRTEDTALYYCARALTGYYGQFDFDSWGQGTLVTVSS
# VL: DVVMTQSPLSLPVTLGQPASISCRSSQSLVHSDGHTYLNWIQQRPGQSPRRLIYKVSNRDSGVPDRFSGSGSGTDFTLKISRVEADDVGIYYCVQGTHWPPWTFGQGTKVEIK
# notes: human IgG1
# B16: AB-009244 (antibody, V domains shown)
# VH: EVQLVESGGGLVQPGGSLRLSCAASGFAFNTYGINWVRQAPGKGLEWVSFISSRSTTIHYADSVRGRFTISRDNAKNSLYLQMNNLRDEDTAVYYCARDLLIWFGETGAFDIWGQGTMVTVSS
# VL: EVVMTQSPATLSVSSGERVTLSCRASQSVSNNLAWYQQKPGQAPRLLIYGASTRATGFPARFSGSGSGTEFTLTISSLQSEDFAVYYCQQYNIWPPGTFGQGTKLEIK
# notes: human IgG1
# B17: AB-009078 (antibody, V domains shown)
# VH: QITLKESGPTLVKPTQTLTLTCTFSGFSLSTSGVGVGWIRQPPGKALEWLALIYWDDDKRYSPSLKSRLTITKDTSKNQVVLTMTNMDPVDTATYYCAHRPGDFWSGYYRYWGQGTLVTVSS
# VL: not shown
# notes: human IgG1
# B18: AB-009119 (antibody, V domains shown)
# VH: EVQLVESGGGLVQPGGSLKLSCAASGFTFSGSAMHWVRQASGKGLEWVGRIRSKANSYATAYAASVKGRFTISRDDSKNTAYLQMNSLKTEDTAVYYCTRHGTTVNWGQGTLVTVSS
# VL: not shown
# notes: human IgG1
# B19: AB-009095 (antibody, V domains shown)
# VH: EVQLVQSGAEVKKPGESLIISCTGSGYTFATFWITWVRQMPGKGLEWLGRIDPSDSYTNYNPSFQGHVTVSVDRSINTAYLELTSLKASDTAIYYCARQMYNTGWPIPNYSDYWGQGTLVTVSS
# VL: QSALTQPPSASGSPGQSVTISCAGASTDVGVYNFVSWYQQHPGKAPKLIIFDVNKRPSGVPDRFSGSKSGNTASLTVSGLQAEDEADYYCSSYEVGNNFVFGTGTKVTVL
# notes: human IgG1
# Target: T1, SARS-CoV-2 Spike (S) trimer (SARS-CoV-2, UniProt P0DTC2 14-1208)
# T1 construct: also called Spike trimer
# Assay: ELISA, S trimer coated, 1:50 dilution
row,Binder,Optical Density (OD; 450 nm)
1,B1,0.249 OD450
2,B2,0.1 OD450
3,B3,2.33 OD450
4,B4,0.081 OD450
5,B5,0.886 OD450
6,B6,1.38 OD450
7,B7,0.166 OD450

# Target: SARS-CoV-1 spike (pseudovirus) (SARS-CoV-1, UniProt P59594 14-1255)
# Assay: cell-based or functional assay
row,Binder,Pseudovirus Neutralization
1,B8,> 50 µg/mL
2,B9,> 50 µg/mL

# Target: SARS-CoV-2 Wuhan-1 full-length Spike protein (SARS-CoV-2, UniProt P0DTC2 14-1273)
# Assay: cell-based or functional assay
row,Binder,Pseudovirus Neutralization
1,B8,0.004 µg/mL
2,B9,1.56 µg/mL

# Target: SARS-CoV-2 Nucleocapsid (N) protein (SARS-CoV-2, UniProt P0DTC9 1-419)
# Assay: BLI
row,Binder,binding result
1,B10,no binding (tested: 300 nM)
2,B11,no binding (tested: 300 nM)
3,B12,no binding (tested: 300 nM)
4,B13,no binding (tested: 300 nM)
5,B14,no binding (tested: 300 nM)
6,B15,no binding (tested: 300 nM)
7,B16,no binding (tested: 300 nM)
8,B5,no binding (tested: 300 nM)

# Target: T2, SARS-CoV-2 S1 protein (SARS-CoV-2, UniProt P0DTC2 16-685)
# T2 construct: domain: S1 protein; also called S1 monomer
# Assay: BLI
row,Binder,binding result
1,B10,no binding (tested: 300 nM)
2,B11,no binding (tested: 300 nM)
3,B13,no binding (tested: 300 nM)
4,B14,no binding (tested: 300 nM)
5,B15,no binding (tested: 300 nM)
6,B17,no binding (tested: 300 nM)
7,B18,no binding (tested: 300 nM)
8,B16,no binding (tested: 300 nM)
9,B19,no binding (tested: 300 nM)
10,B6,no binding (tested: 300 nM)

# Target: T3, SARS-CoV-2 Receptor Binding Domain (RBD) (SARS-CoV-2, UniProt P0DTC2 319-541)
# T3 construct: also called RBD protein
# Assay: BLI
row,Binder,binding result
1,B17,no binding (tested: 300 nM)
2,B18,no binding (tested: 300 nM)
3,B19,no binding (tested: 300 nM)
4,B6,no binding (tested: 300 nM)

# Target: T4, SARS-CoV-2 S2 protein (SARS-CoV-2, UniProt P0DTC2 686-1213)
# T4 construct: domain: S2 protein; also called S2 monomer
# Assay: BLI
row,Binder,binding result
1,B10,no binding (tested: 300 nM)
2,B8,no binding (tested: 300 nM)
3,B9,no binding (tested: 300 nM)
4,B11,no binding (tested: 300 nM)
5,B12,no binding (tested: 300 nM)
6,B13,no binding (tested: 300 nM)
7,B14,no binding (tested: 300 nM)
8,B15,no binding (tested: 300 nM)
9,B16,no binding (tested: 300 nM)
10,B5,no binding (tested: 300 nM)
11,B6,no binding (tested: 300 nM)
